Test results from US20180094062A1 (Hoffmann-La Roche, published 2018).

Columns and labels:
[1] = molecular target: T1, recombinant Thermus thermophilus SlyD FKBP-Her3 (TtSlyD-FKBP-Her3); test: SPR Biacore 4000 kinetic screening, antibody captured, analyte 150 nM, 25 C
T1 construct: expressed in E. coli, the N-terminal methionine can be present or not; also called thermo SlyD-Her3; T.T.SlyD-Her3
T1 chain: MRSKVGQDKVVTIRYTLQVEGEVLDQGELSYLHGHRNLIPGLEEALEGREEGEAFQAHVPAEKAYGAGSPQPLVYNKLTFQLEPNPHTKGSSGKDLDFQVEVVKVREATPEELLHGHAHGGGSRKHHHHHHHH
Procedure: In all assay the test antibodies were captured. The system was under the control of the software version V1.1. The instrument buffer was HBS-EP (10 mM HEPES (pH 7.4), 150 mM NaCl, 1 mM EDTA, 0.05% (w/v) P20). The system operated at 25° C. 30 μg/ml Rabbit polyclonal antibody (RAM IgG, (Rabbit anti Mouse IgG with Fc gamma specificity) GE Healthcare) in 10 mM sodium acetate buffer (pH 4.5) was immobilized using EDC/NHS chemistry according to the manufacturer's instructions on the spots 1, 2, 4 and 5 in the flow cells 1, 2, 3 and 4. The sensor was saturated using 1M ethanolamine. In each flow cell, referenced signals were calculated using spots 1-2 and spots 5-4, spot 3 served as a blanc control. […] Prior to their application the hybridoma culture supernatants were diluted 1:5 in instrument buffer. The diluted mixtures were injected at a flow rate of 30 μl/min for 2 min. The antibody capture level (CL) in response units was monitored. Immediately thereafter the respective antigen was injected at a flow rate of 30 μl/min for 3 min association time. Thereafter, the antibody-antigen complex dissociation signal was recorded for 5 min. The sensor was regenerated by injecting a 10 mM glycine-HCl solution (pH 1.7) for 2 min at a flow rate of 30 μl/min. The recorded signal shortly before the end of the injection of the antigen was denoted as binding late (BL) in response units. The recorded signal shortly before the end of the recording of the dissociation is denoted as stability late (SL) in response units. The dissociation rate constants were determined calculated The antibody-antigen complex stability in minutes was calculated with the following formula: […]. The Molar Ratio was calculated with the formula: MW (antibody)/MW (antigen) *BL (antigen)/CL (antibody).

[2] = molecular target: T2, HER4 ECD-HRG complex (Heregulin-complexed Her-4 ECD) (human, UniProt Q15303 26-651); test: SPR Biacore T200, antibody captured, 25 C
T2 construct: Her-4 ECD incubated with a 5-fold molar excess of Heregulin
T2 sequence 1: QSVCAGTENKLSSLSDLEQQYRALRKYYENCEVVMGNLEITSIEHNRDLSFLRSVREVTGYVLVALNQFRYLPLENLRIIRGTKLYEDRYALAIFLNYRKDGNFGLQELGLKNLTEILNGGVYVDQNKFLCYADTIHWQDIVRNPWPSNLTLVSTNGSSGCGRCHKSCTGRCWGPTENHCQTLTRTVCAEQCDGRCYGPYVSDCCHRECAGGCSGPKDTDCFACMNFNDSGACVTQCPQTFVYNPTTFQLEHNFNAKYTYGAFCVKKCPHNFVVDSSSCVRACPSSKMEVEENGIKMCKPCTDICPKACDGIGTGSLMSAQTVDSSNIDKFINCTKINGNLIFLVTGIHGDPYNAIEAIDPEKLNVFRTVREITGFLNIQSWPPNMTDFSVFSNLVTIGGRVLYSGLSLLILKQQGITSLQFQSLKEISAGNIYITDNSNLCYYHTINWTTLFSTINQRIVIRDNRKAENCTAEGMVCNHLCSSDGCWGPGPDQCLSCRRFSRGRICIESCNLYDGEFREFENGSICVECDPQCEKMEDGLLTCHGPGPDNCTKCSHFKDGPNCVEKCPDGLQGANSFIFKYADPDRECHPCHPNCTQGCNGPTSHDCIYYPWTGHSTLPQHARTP
T2 sequence 2: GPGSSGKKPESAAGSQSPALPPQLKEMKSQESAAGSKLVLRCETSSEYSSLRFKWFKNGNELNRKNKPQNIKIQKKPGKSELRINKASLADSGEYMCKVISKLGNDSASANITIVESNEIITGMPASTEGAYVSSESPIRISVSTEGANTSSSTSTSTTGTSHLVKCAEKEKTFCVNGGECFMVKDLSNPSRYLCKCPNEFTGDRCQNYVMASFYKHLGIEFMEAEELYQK
Procedure: (§1) A Biacore T200 instrument (GE Healthcare) was mounted with a CM5 series sensor. The sensor was normalized in HBS-ET buffer (10 mM HEPES pH 7.4, 150 mM NaCl, 3 mM EDTA, 0.05% w/v Tween 20) according to the manufacturer's instructions. The sample buffer was the system buffer supplemented with 1 mg/ml CMD (Carboxymethyldextran, Sigma #86524). The system operated at 25° C. 6500 RU RAM-Fcγ (relative units of Fcγ-fragment RamlgG, GE Healthcare) were immobilized according to the manufacturer's instructions using amine coupling EDC/NHS chemistry on all four flow cells. The sensor was deactivated using 1M ethanolamine. […] Concentration dependent kinetics were measured. […] All analytes were injected for 5 min association time and 10 min dissociation time at 100 μl/min flow rate. The sensor capture system was regenerated by a 3 min injection at 10 μl/min of 10 mM glycine pH 1.7. Where possible kinetic data was evaluated using the Biacore T200 evaluation software.

[3] = molecular target: T3, human Heregulin fragment (HRG) (human); test: SPR Biacore T200, antibody captured, 25 C
T3 construct: a 44 kDa homodimeric protein, expressed in FreeStyle 293-F cells; also called Heregulin beta (HRG)
T3 chain: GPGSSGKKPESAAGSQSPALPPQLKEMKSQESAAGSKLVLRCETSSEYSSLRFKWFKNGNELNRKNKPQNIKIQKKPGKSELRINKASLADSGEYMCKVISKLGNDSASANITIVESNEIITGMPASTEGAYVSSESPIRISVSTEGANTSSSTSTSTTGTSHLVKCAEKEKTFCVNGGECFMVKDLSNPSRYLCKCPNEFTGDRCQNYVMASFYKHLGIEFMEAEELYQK
Procedure: as §1

TtSlyDcys-Her3 = molecular target: T4, TtSlyDcys-Her3; test: ELISA, antigen coated, hybridoma supernatant
T4 chain: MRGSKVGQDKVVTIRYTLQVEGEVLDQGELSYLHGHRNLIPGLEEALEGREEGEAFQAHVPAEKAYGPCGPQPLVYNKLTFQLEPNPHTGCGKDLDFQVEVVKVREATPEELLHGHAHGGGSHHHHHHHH
Procedure: For the ELISA screening an antigen down format was used. […] Hybridoma Supernatant was added to the plates and incubated for 1 h at room temperature. Bound antibody was detected with a HRP-labeled F(ab′)₂ goat anti-mouse Fcγ (Dianova) and ABTS (Roche) was used as a HRP-substrate.
As negative controls the scaffold proteins TtSlyDcas and TgSlyDΔIF were used.

B1: anti-HER3 antibody M-08-11 (antibody, V domains shown)
VH: QAYLQQSGAELMRPGASVRMSCQASGYTFTSYTIHWLKQTPRQGLEWIGAIYPRNGDFSYNQKFKDKASLTVDTSSSTAYMHLSSLTSEDSAVYFCARTINYGDWFAYWGQGTLVTVSA
VL: DIQMIQSPASLFVSEGETVIITCRASENIYSNLAWYHQKKGKSPQVLVYAAIKLADGVPLRFSGSGSGTQFSLKINSLQSEDFGSYYCQHFWGPPYTFGSGTNLEIK
notes: mouse monoclonal antibody from hybridoma, tested as hybridoma supernatant or as antibody; also called M-011
BL (binding late) [1]: 46 RU | MR (Molar Ratio) [1]: 1.3 | SL (stability late) [1]: 45 RU | koff [1]: 0.000102 s⁻¹ | t/2 diss [1]: 114 min

B2: anti-HER3 antibody M-46-01 (antibody, V domains shown)
VH: QIQLQQSGPQLVRPGASVKISCKASGYSFTSYWMHWVKQRPGRGLEWIGMIDPSDGVTRLNQKFKDKATLTVDNSSSTAYMQLSSPTSEDSAVHYCARVDVLYWYFDVWGAGTTVTVSS
VL: DIVLTQSPASLAVSLGQRATISCRASKSISISGYSYMHWYQQKAGQPPKLLIYLTSNLESGVPARFSGSGSGTDFTLNIHPVEEEDAATYYCHHSRELPFTFGSGTKLEIK
notes: mouse hybridoma clone
binding result [2]: no binding (tested: 90 nM) | binding result [3]: no binding (tested: 450 nM) | BL (binding late) [1]: 80 RU | MR (Molar Ratio) [1]: 1.8 | SL (stability late) [1]: 71 RU | koff [1]: 0.00028 s⁻¹ | t/2 diss [1]: 41 min

B3: anti-HER3 antibody M-17-02 (antibody, V domains shown)
VH: EVQLQQSGTVLARPGASVKMSCKASGYSFTSYWIHWVKQRPGQGLEWIGAIYPGNSDTTYNQKFKGKAKLTAVTSASTAYMELSSLTNEDSAVYYCARTGVWTSYYFDYWGQGTTLTVSS
VL: DIQMTQSPASLSASVGETVTITCRASENIYSNLAWYQQKQGKSPQLLVYAATNLADGVPSRFSGSGSGTQFSLRINSLQPEDFGSYYCQHFYGTPFTFGTGTKLEIK
notes: mouse hybridoma clone
OD 405 nm (TtSlyDcys-Her3): 1.55 OD | BL (binding late) [1]: 52 RU | MR (Molar Ratio) [1]: 1.7 | SL (stability late) [1]: 50 RU | koff [1]: 0.0002 s⁻¹ | t/2 diss [1]: 59 min

B4: anti-HER3 antibody M-43-01 (antibody, V domains shown)
VH: EVQLQQSGTVLARPGASVKMSCKASDYTFSNYWVHWVKQRPGQGLEWIGAIYPGNGDSTYYQKFKGKATLTAVTSTSTAYMDLSSLTNGDSAVYFCTRSGVGYNYYFDYWGQGTTLTVSS
VL: DIQMTQSPASLSASVGETVTITCRASENIYSNLAWYQQKQGKSPQLLVYIATNLADGVPSRFSGSGSGTQFSLKINSLQPEDLGSYYCQHFYGTPFTFGTGTKLEIE
notes: mouse hybridoma clone
binding result [2]: no binding (tested: 90 nM) | binding result [3]: no binding (tested: 450 nM) | OD 405 nm (TtSlyDcys-Her3): 3.5 OD | BL (binding late) [1]: 53 RU | MR (Molar Ratio) [1]: 1.7 | SL (stability late) [1]: 51 RU | koff [1]: 0.00016 s⁻¹ | t/2 diss [1]: 73 min
